Target: the molecule itself
Test: AUC; ultracentrifugation of Sir2a; no details given (to be detailed in a later publication)

B1: Plasmodium falciparum Sir2a (enzyme, UniProt Q8IE47 1-273, looked up)
chain: MGNLMISFLKKDTQSITLEELAKIIKKCKHVVALTGSGTSAESNIPSFRGSSNSIWSKYDPRIYGTIWGFWKYPEKIWEVIRDISSDYEIEINNGHVALSTLESLGYLKSVVTQNVDGLHEASGNTKVISLHGNVFEAVCCTCNKIVKLNKIMLQKTSHFMHQLPPECPCGGIFKPNIILFGEVVSSDLLKEAEEEIAKCDLLLVIGTSSTVSTATNLCHFACKKKKKIVEINISKTYITNKMSDYHVCAKFSELTKVANILKGSSEKNKKIM
notes: Sir2a of Plasmodium falciparum, codon-optimized gene PF3D7_1328800 cloned into pET-28a; printed size 34 kDa; Protonated protein; The His tag is inferred from pET-28a and the TALON purification; removal of the tag is not mentioned; source: E. coli BL21 DE3, purified (HiTrap TALON, gel filtration)
stoichiometry N: 3

Source: publication PMC5139991, “SEC-SANS: size exclusion chromatography combined in situ with small-angle neutron scattering1” (Journal of Applied Crystallography, 2016)
